Assay results reported in patent US20180057604A1 (Genentech, published 2018).
Changes are numbered by the printed parent chain.

T1: cyno TfR extracellular domain (analogous construct to human TfR ecd) (cynomolgus monkey, UniProt Q5RDH6 87-760 (Pongo abelii entry))
T1 construct: also called cynoTfR ecd
T1 chain: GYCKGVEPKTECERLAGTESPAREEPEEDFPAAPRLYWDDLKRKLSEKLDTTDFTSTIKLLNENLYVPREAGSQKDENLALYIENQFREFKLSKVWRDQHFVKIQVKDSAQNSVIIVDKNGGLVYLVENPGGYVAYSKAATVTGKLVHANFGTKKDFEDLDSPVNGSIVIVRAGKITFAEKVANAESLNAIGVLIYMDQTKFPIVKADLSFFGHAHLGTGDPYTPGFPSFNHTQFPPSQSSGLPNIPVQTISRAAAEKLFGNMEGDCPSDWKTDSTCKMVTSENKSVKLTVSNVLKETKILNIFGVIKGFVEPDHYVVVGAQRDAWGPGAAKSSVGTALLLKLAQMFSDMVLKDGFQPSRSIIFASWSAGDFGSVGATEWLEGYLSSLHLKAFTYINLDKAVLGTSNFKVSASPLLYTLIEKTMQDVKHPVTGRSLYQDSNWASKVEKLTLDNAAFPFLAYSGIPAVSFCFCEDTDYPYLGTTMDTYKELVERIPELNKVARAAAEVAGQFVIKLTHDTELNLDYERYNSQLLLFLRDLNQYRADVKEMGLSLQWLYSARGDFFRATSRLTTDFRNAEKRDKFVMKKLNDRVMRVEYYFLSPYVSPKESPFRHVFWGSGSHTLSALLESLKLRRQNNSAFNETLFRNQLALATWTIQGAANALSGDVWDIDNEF

B1: 5930 (antibody, V domains shown)
VH: QVQLVQSGAEVKKPGSSVKVSCKASGGTLSGYAISWVRQAPGQGLEWMGNIIPGFGTANYAQKSQGRVTITADESTSTAYMELSSLRSEDTAVYYCARSGGTRYGMLDVWGQGTMVTVSS
VL: EIVMTQSPATLSVSPGERATLSCRASQSVGSNLAWYQQKPGQAPRLLIYGASTRATGIPARFSGSGSGTEFTLTISSLQSEDFAVYYCQQLYTWPPRTFGGGTKVEIK
notes: anti-BACE1 IgG
B2: 6305 (antibody, V domains shown)
VH: B1 VH
VL: B1 VL with M4L, L91S, Y92F, T93V
notes: anti-BACE1 IgG
B3: 5888 (antibody, V domains shown)
VH: B1 VH with L29F, S30W, G31K, S64F, Q65R, R103K
VL: B1 VL with G30S, Y92I, T93L
notes: anti-BACE1 IgG
B4: 5893 (antibody, V domains shown)
VH: B1 VH with L29F, S30R, S64F, R103K
VL: B1 VL
notes: anti-BACE1 IgG
B5: 5890 (antibody, V domains shown)
VH: B1 VH with L29F, G31S, S64F, R103K
VL: B1 VL
notes: anti-BACE1 IgG
B6: 5891 (antibody, V domains shown)
VH: B1 VH with L29F, G31S, G54I, T57P, S64F, R103K
VL: B1 VL
notes: anti-BACE1 IgG
B7: 5892 (antibody, V domains shown)
VH: B1 VH with L29F, G31S, G54I, N59T, S64F, R103K
VL: B1 VL
notes: anti-BACE1 IgG
B8: 5897 (antibody, V domains shown)
VH: QLQLQESGPGLVKPSETLSLTCTVSGGSISWSSYYWSWIRQPPGKGLEWIGSIYKSGRTYYNPSLKSRVTISVDTSKNQFSLKLSSVTAADTAVYYCARVGHGISYFDLWGRGTLVTVSS
VL: EIVLTQSPATLSLSPGERATLSCRASQSVSSYLAWYQQKPGQAPRLLIYDASNRATGIPARFSGSGSGTDFTLTISSLEPEDFAVYYCQQSLTWPPRTFGGGTKVEIK
notes: anti-BACE1 IgG
B9: 16F6 (antibody, V domains shown)
VH: DVQLQESGPGLVKPSQSLSLTCTVTGNSITSEYAWNWIRQFPGNKLEWMGYISYSGTTSYNPSLKSRISITRDTSKNQLFLQLNSVTTEDTATYFCARYGYGNPATRYFDVWGAGTTVTVSS
VL: DVQITQSPSYLTASPGETITINCRASKSISKYLAWYQEKPGKTNKLLIYSGSTLQSGIPSRFSGSGSGTDFTLTISNLEPEDFAMYYCQQHNEYPWTFGGGTKLEIK
notes: Mouse hybridoma antibody; also called clone 16F6
B10: 15G11 (antibody, V domains shown)
VH: QVQLQQPGAELVKPGASVKLSCKASGYTFTSYWMHWVKQRPGQGLEWIGEINPTNGRTNYIEKFKSKATLTVDKSSSTAYMQLSSLTSEDSAVYYCARGTRAYHYWGQGTSVTVSS
VL: DIQMTQSPASLSVSVGETVTITCRASDNLYSNLAWYQQKQGKSPQLLVYDATNLADGVPSRFSGSGSGTQYSLKINSLQSEDFGTYYCQHFWGTPLTFGAGTKLELK
notes: Mouse hybridoma antibody; also called clone 15G11
B11: 7A4 (antibody, V domains shown)
VH: QVQLQQSGPELVRPGVSVKISCKGSGYTFTDYAMHWVKQSHAKSLEWIGGISTYFGRTNYNQKFKGRATMTVDKSSSTAYMELARLTSEDSALYYCARGLSGNYVMDYWGQGTSVTVSS
VL: DIVLTQSPASLAVSLGQRATISCRASESVDDYGNSFMHWYQQKPGQPPKLLIYRASNLESGIPARFSGSGSRTDFTLTINPVEADDVATYYCQQSNEAPPTFGGGTKLEIR
notes: also called clone 7A4
B12: 10D11 (antibody, V domains shown)
VH: QVQLQQSGPELVRPGVAVKISCKGSGYKFIDYGMHWVKQSHTKSLQWIGVISPYSGKTNYSQKFKGKATMTVDKSSSTAYMELARLTSEDSAIYYCARGLSGNFVMDFWGQGTSVTVSS
VL: B11 VL with D31S, N34P, Q94H, A98D, K107R, R111K
notes: Mouse hybridoma antibody; also called clone 10D11
B13: 7A4 HC/8A2 LC (antibody, V domains shown)
VH: B11 VH
VL: B11 VL with D31S, A98G, R111K
notes: chimeric IgG; also called ch7A4/8A2

What follows are binders tested against T2, BACE1 in primary mouse cortical neurons (mouse, UniProt P56818 46-501) (assay: cell-based or functional assay).
T2 sequence (P56818 46-501): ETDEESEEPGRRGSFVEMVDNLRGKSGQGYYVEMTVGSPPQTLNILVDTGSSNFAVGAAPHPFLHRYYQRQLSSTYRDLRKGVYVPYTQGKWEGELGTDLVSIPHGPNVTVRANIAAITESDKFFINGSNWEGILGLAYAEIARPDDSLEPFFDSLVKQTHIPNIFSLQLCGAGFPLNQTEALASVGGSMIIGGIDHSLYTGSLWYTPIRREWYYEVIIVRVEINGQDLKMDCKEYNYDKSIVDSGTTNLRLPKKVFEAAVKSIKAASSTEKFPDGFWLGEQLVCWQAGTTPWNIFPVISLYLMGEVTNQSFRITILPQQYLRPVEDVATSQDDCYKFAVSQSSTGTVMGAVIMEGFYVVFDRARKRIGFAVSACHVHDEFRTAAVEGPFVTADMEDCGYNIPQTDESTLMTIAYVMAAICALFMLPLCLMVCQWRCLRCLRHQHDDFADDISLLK

Row | IC50, Abeta x-40 in mouse cortical neurons | maximal % inhibition of Abeta x-40 | Binder
1 | 7.52 nM | 74% | B1

These binders were tested against T3, human BACE1 ECD (assay: Octet, pH 7.5).
T3 construct: analyte of the Octet assay (200 nM) and enzyme of the first short substrate assay; also called human BACE1 extracellular domain
T3 sequence (single chain, as listed by the source limits assumed): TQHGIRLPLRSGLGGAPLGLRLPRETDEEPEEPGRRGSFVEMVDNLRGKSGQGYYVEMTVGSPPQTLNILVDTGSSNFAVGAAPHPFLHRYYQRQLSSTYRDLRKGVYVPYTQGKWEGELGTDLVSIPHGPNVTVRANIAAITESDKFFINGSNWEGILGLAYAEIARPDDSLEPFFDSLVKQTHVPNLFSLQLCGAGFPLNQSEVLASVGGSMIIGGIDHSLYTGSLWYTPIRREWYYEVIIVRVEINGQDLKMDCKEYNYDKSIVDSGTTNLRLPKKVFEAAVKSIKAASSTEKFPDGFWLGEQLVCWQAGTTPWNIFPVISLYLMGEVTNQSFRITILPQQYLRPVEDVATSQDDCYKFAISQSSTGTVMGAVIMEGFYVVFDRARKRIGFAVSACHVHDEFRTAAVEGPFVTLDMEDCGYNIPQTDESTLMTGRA

Row | Kd | Binder
2 | 0.53 nM | B2

Each binder was assayed against T4, murine BACE1 ECD (assay: Octet, pH 7.5).
T4 construct: analyte of the Octet assay (200 nM) and enzyme of the first short substrate assay
T4 sequence (single chain, as listed by the source limits assumed): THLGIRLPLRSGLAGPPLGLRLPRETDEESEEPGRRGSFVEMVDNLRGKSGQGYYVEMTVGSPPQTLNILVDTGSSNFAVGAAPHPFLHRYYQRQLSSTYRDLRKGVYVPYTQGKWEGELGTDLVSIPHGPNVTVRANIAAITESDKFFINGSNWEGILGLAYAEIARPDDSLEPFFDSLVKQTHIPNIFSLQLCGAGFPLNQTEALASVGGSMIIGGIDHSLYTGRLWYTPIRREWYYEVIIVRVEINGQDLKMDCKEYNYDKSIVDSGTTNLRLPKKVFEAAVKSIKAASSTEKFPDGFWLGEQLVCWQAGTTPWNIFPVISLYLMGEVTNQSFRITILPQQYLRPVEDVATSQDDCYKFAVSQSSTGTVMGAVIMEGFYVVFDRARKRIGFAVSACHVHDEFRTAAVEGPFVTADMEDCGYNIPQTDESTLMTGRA

Row | Kd | Binder
3 | 0.56 nM | B2

Target: T2, BACE1 in primary mouse cortical neurons
Test: cell-based or functional assay
Remark: another data set of the same source

Row | IC50, Abeta x-40 in mouse cortical neurons | maximal % inhibition of Abeta x-40 | Binder
4 | 9.69 nM | 67% | B2

Target: T2, BACE1 in primary mouse cortical neurons
Test: cell-based or functional assay
Remark: another data set of the same source

Row | IC50, Abeta x-40 in mouse cortical neurons | maximal % inhibition of Abeta x-40 | Binder
5 | 1.79 nM | 82% | B3
6 | 9.46 nM | 73% | B4
7 | 8.45 nM | 77% | B5
8 | 18 nM | 78% | B6
9 | 9.52 nM | 73% | B7
10 | 0.3 nM | 62% | B8

Target: T1, cyno TfR extracellular domain …
Test: SPR, IgG

Row | Kd | Binder
11 | 7.45 nM | B9
12 | 2.6 nM | B10
13 | 0.627 nM | B11
14 | 89.9 nM | B12
15 | 0.925 nM | B13

Each binder was assayed against T5, human TfR extracellular domain with N-terminal His tag (human, UniProt P02786 89-760) (assay: SPR, IgG).
T5 construct: Biotinylated in some assays; also called huTfR; HuTfR
T5 sequence (P02786 89-760 G142S): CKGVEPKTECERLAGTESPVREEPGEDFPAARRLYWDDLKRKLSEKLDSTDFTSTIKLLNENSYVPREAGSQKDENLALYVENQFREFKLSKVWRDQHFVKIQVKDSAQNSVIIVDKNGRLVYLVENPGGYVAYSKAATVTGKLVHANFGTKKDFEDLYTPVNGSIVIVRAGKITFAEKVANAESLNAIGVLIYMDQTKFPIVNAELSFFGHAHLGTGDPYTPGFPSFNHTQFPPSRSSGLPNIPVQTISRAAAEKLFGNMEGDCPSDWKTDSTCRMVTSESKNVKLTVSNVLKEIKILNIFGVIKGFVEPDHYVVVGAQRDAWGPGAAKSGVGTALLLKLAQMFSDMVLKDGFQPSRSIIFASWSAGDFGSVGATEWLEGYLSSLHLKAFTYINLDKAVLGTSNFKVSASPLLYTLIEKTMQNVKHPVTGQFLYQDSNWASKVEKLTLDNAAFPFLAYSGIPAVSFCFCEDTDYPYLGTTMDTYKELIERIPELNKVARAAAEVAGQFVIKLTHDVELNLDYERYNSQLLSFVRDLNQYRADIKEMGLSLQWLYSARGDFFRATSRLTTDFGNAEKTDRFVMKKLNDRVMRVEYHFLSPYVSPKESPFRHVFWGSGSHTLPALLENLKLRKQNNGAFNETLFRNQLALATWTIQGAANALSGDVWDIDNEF

Row | Kd | Binder
16 | 2.07 nM | B9
17 | 0.992 nM | B10
18 | 0.206 nM | B11
19 | 2.08 nM | B12
20 | 0.112 nM | B13

Target: T1, cyno TfR extracellular domain …
Test: SPR, IgG
Remark: another data set of the same source

Row | Kd | Binder
21 | 7.45 nM | B9

Target: T5, human TfR extracellular domain with …
Test: SPR, IgG
Remark: another data set of the same source

Row | Kd | Binder
22 | 2.07 nM | B9

The binders below were run against T3, human BACE1 ECD (assay: cell-based or functional assay).

Row | % inhibition of BACE1 activity, short FRET substrate | Binder
23 | -86% | B3
24 | 72% | B4
25 | 66% | B5
26 | 71% | B6
27 | 64% | B7
28 | 1% | B8

What follows are binders tested against T4, murine BACE1 ECD (assay: cell-based or functional assay).

Row | % inhibition of BACE1 activity, short FRET substrate | Binder
29 | -183% | B3
30 | 69% | B4
31 | 69% | B5
32 | 70% | B6
33 | 64% | B7
34 | -3% | B8

Target: T3, human BACE1 ECD
Test: Octet, pH 7.5
Remark: another data set of the same source

Row | Kd | Binder
35 | 0.86 nM | B3
36 | 0.33 nM | B4
37 | 0.55 nM | B5
38 | 0.65 nM | B6
39 | 0.88 nM | B7
40 | < 0.29 nM | B1
41 | 0.95 nM | B8

Target: T4, murine BACE1 ECD
Test: Octet, pH 7.5
Remark: another data set of the same source

Row | Kd | Binder
42 | 1.4 nM | B3
43 | 0.98 nM | B4
44 | 1 nM | B5
45 | 1.4 nM | B6
46 | 1.3 nM | B7
47 | < 0.3 nM | B1
48 | 1.1 nM | B8

Each binder was assayed against BACE1 (HTRF long substrate and FRET short substrate assays of Example 9D) (assay: cell-based or functional assay).

Row | EC50, FRET short substrate | EC50, HTRF long substrate | Binder
49 | 0.602 nM | 2.5 nM | B3
50 | 8.84 nM | 3.59 nM | B4
51 | 32.4 nM | 4.06 nM | B5
52 | 12.4 nM | 3.03 nM | B6
53 | 16.4 nM | 1.19 nM | B7
54 | 0.528 nM | 1.39 nM | B8

These binders were tested against T3, human BACE1 ECD (assay: Octet, pH 5.0).

Row | Kd | Binder
55 | 0.96 nM | B2

What follows are binders tested against T4, murine BACE1 ECD (assay: Octet, pH 5.0).

Row | Kd | Binder
56 | 1.6 nM | B2

Target: T3, human BACE1 ECD
Test: Octet, pH 5.0
Remark: another data set of the same source

Row | Kd | Binder
57 | 1.8 nM | B3
58 | 0.38 nM | B4
59 | 0.64 nM | B5
60 | 0.96 nM | B6
61 | 0.39 nM | B7
62 | < 0.23 nM | B1
63 | 0.82 nM | B8

Target: T4, murine BACE1 ECD
Test: Octet, pH 5.0
Remark: another data set of the same source

Row | Kd | Binder
64 | 2 nM | B3
65 | 0.73 nM | B4
66 | 0.79 nM | B5
67 | 1.1 nM | B6
68 | 1.1 nM | B7
69 | < 0.29 nM | B1
70 | 0.82 nM | B8

Target: T1, cyno TfR extracellular domain …
Test: SPR, IgG
Remark: another data set of the same source

Row | Kd | Binder
71 | 2.6 nM | B10
72 | 0.627 nM | B11
73 | 0.925 nM | B13

Target: T5, human TfR extracellular domain with …
Test: SPR, IgG
Remark: another data set of the same source

Row | Kd | Binder
74 | 0.992 nM | B10
75 | 0.206 nM | B11
76 | 0.112 nM | B13

Each binder was assayed against T6, human BACE1 (R&D Systems) (human, UniProt P56817) (assay: SPR (Biacore)).
T6 construct: recombinant, commercial (R&D Systems)
T6 sequence (P56817 22-457 limits assumed): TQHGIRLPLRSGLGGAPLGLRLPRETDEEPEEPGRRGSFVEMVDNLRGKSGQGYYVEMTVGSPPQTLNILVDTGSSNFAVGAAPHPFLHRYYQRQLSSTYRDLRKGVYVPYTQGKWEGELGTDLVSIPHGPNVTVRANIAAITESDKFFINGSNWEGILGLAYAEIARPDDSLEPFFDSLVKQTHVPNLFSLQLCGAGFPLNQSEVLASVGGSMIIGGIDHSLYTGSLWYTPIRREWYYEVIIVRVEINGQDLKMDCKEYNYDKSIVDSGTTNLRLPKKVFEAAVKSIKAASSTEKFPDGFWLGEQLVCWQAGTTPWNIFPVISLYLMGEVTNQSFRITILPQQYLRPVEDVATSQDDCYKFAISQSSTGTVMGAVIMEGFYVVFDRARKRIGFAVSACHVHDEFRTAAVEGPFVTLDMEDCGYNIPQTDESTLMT

Row | Kd | Binder
77 | 4.25 nM | B3
78 | 2.76 nM | B4
79 | 3.22 nM | B5
80 | 3.29 nM | B6
81 | 2.97 nM | B7
82 | 6.41 nM | B1
83 | 2.07 nM | B8
